Test results reported in IntAct's records for PubMed 22555612.

Target: hdac2_mouse Hdac2 (UniProt P70288)
Sequence (P70288 whole entry): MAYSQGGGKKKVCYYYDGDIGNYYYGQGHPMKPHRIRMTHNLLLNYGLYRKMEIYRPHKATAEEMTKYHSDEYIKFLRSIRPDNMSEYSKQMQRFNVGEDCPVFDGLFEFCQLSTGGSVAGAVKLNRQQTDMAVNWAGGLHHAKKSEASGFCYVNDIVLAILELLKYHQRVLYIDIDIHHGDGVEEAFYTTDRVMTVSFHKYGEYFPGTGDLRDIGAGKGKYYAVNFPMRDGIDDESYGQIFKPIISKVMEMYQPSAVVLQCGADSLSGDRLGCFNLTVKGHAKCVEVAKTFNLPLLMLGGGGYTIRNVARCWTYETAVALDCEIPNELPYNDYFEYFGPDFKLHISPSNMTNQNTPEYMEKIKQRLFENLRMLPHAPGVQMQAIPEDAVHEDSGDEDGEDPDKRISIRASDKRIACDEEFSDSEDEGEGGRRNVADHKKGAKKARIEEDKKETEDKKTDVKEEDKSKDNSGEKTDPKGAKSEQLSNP

Sequence of PR domain zinc finger protein 1 (Homo sapiens), O75626-2 K778R (O75626 37-825, stated change not applied): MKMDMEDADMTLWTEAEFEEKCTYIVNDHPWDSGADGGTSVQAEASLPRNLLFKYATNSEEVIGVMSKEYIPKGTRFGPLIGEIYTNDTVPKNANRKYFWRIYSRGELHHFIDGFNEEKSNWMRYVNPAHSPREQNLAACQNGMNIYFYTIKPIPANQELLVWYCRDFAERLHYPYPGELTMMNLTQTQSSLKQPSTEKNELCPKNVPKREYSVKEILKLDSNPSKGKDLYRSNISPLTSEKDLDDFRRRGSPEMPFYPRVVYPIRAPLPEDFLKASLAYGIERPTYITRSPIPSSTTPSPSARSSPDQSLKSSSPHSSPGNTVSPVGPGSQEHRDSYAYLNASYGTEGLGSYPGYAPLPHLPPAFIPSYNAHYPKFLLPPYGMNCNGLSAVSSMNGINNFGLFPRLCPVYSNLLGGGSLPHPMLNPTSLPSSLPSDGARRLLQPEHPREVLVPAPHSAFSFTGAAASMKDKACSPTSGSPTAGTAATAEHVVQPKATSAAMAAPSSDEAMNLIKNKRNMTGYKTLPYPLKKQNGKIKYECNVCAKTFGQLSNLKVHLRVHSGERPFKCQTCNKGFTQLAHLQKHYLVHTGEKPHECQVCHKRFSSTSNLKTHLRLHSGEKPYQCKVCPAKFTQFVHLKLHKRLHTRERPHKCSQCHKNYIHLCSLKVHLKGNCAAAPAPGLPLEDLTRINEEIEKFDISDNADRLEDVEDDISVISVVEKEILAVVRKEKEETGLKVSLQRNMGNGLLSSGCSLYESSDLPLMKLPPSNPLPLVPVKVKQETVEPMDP

effect of a mutation on the interaction: decreasing interaction
Substance: PR domain zinc finger protein 1 (Homo sapiens), O75626-2 K778R
